Read-outs that look alike come from different tables or passages of the source. Where no end group is shown, it is not given here.
Experiments:
[1] = test system: MDA-MB-231 human mammary carcinoma cells; format: cell-based
Method: FIGS. 5A-5F—Inhibition of MDA-MB-231 human mammary carcinoma cell attachment and spreading on VN by synstatin82-130. MDA-MB-231 human mammary carcinoma cells, which rely on the αvβ3 integrin for attachment and spreading on VN, were plated on 10 μg/ml VN for 2 hr in the absence of peptide (FIG. 5A) or in the presence of 0.1 (FIG. 5B), 0.3 (FIG. 5C) or 1 μM (FIG. 5D) synstatin82-130. The cells were fixed and stained as in FIG. 2.
FIG. 17—Human SSTN peptides inhibit αvβ3-mediated cell attachment and spreading on vitronectin. MDA-MB-231 human mammary carcinoma cells were allowed to attach and spread on either vitronectin (VN) or fibronectin (FN) during a 2 hr assay in the presence of 0, 0.1, 0.3, 0.5, 1.0 or 30 μM SSTN peptide. […] The two peptides tested are derived either from amino acids 88-121 (hSSTN 88-121) or 89-120 (hSSTN 89-120) of the human Sdc1 sequence. Adhesion to VN, but not FN, is mediated by the αvβ3 integrin on these cells and is disrupted by the human SSTN peptides.
Cell adhesion and spreading assays were performed with modification to the previous procedures (Lebakken and Rapraeger, 1996. Briefly, human plasma vitronectin or fibronectin at 10-30 μg/ml were applied to nitrocellulose-coated ten well slides (Erie Scientific) and incubated for 1-2 h at 37° C. Slides were blocked with 1.0% heat-denatured bovine serum albumin for a minimum of 30 min at 37° C. Cells were detached from the substratum using 5 mM EDTA in Tris-buffered saline and resuspended in HEPES-buffered culture medium containing 0.1% heat-denatured BSA. Cells were plated at a density of 15,000 cells per well and allowed to attach and spread for 2 h prior to fixation in 4% paraformaldehyde in CMF-PBS. For fluorescence microscopy, fixed cells were permeabilized in 0.2% Triton X-100, labeled with rhodamine-conjugated phalloidin and analyzed using fluorescence microscopy. For testing inhibition by recombinant mScd-1ED and synstatin82-130, cells were pre-incubated 10 min before plating in the presence of the inhibitor. […] LM609 was used as a specific block to αvβ3 and P1F6 was used as a specific blocker of αvβ5.
The inventors have tested the adhesion and spreading of MDA-MB-231 mammary carcinoma cells on VN in the presence or absence of synstatin82-130. These cells rely specifically on the active αvβ3 integrin for this adhesion (Beauvais et al., 2004). Recombinant Sdc1 ectodomain (SLED) has been shown by the inventors previously to block spreading of these cells with an IC50 of about 3-10 μM (Beauvais et al., 2004). […] Thus, synstatin82-130 is a specific and effective inhibitor of αvβ3 integrin activation.

B82L fibroblasts = settings: B82L cells; McQuade et al., 2006; read-out: IC50, recognition of VN; cited from earlier work
[2] = target: T1, syndecan-1 association with the αvβ3 integrin (Homo sapiens, UniProt P05106+P06756); experiment: Co-immunoprecipitation of αvβ3 integrin with syndecan-1 from MDA-MB-231 cells; format: binding
T1 construct: endogenous in cells; host or cells: MDA-MB-231 human mammary carcinoma cells (some also transfected with mouse syndecan-1 constructs)
Text: FIGS. 8A-8D—SSTN disrupts association of syndecan-1 with the αvβ3 and αvβ5 integrins. (FIG. 8A) Diagram of mouse syndecan-4 (mS4), human syndecan-1 (hS1) and mouse syndecan-1 (mS1) and mS1 deletion mutants showing which proteoglycans are able to activate the αvβ3 and αvβ5 integrins. (FIG. 8B) Flow cytometry of human aortic endothelial cells (HAEC), human dermal microvascular endothelial cells (HMEC-1) or mouse aortic endothelial cells (MAEC) using human or mouse-specific antibodies for syndecan-1, αvβ3, and αvβ5. The β5 subunit is detected by Western blot in mouse cells and is compared to B82L fibroblasts known to express this integrin; (FIG. 8C) Human syndecan-1 is immunoprecipitated from HMEC-1 cells in the presence or absence of 30 μM GST, 30 μM GST-mS1ED (mouse syndecan-1 ectodomain), or 1 μM SSTN and detected on blots along with co-precipitating β3 or β5 integrin. (FIG. 8D) Human syndecan-1 is immunoprecipitated from MDA-MB-231 human mammary carcinoma cells expressing full-length mouse syndecan-1 (F1-mS1), a mouse mutant bearing deletion of amino acids 67-121 (mS1^Δ67-121), or vector alone (NEO) and blotted for the co-precipitation of the αvβ3 integrin by detection of the β3 subunit. […]

[3] = test system: MDA-MB-231 human mammary carcinoma cells; settings: MDA-MB-231 on vitronectin; shown previously (Beauvais et al., 2004); read-out: IC50, block of cell spreading on VN; cited from earlier work

T1 sequence (P06756 31-889 limits assumed): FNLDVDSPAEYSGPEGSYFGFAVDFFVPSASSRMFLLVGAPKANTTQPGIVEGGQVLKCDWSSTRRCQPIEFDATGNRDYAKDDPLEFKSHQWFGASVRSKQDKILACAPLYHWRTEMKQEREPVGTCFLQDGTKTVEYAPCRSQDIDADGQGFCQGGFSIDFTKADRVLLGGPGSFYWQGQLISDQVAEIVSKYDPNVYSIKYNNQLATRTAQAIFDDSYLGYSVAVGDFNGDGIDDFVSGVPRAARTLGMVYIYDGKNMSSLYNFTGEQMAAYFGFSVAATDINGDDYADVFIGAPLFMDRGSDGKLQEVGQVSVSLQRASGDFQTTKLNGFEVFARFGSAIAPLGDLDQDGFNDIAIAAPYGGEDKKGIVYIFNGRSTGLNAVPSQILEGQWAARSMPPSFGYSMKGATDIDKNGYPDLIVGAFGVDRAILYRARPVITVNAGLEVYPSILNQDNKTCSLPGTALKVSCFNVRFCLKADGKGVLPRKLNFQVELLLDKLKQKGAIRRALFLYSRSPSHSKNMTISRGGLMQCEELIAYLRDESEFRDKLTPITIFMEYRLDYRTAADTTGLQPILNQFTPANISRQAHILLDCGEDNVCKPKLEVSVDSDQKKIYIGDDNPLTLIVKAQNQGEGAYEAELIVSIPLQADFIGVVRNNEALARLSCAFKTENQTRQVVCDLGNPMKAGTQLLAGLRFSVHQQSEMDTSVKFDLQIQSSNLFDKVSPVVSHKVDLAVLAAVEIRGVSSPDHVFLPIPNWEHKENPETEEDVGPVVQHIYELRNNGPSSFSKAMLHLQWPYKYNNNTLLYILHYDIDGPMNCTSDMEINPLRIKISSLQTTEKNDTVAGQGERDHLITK
T1 sequence (P06756 891-1048 limits assumed): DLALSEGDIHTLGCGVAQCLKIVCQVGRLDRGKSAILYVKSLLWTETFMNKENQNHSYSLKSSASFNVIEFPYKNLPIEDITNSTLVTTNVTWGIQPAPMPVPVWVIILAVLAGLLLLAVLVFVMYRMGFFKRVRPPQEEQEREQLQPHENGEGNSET
T1 sequence (P05106 27-788): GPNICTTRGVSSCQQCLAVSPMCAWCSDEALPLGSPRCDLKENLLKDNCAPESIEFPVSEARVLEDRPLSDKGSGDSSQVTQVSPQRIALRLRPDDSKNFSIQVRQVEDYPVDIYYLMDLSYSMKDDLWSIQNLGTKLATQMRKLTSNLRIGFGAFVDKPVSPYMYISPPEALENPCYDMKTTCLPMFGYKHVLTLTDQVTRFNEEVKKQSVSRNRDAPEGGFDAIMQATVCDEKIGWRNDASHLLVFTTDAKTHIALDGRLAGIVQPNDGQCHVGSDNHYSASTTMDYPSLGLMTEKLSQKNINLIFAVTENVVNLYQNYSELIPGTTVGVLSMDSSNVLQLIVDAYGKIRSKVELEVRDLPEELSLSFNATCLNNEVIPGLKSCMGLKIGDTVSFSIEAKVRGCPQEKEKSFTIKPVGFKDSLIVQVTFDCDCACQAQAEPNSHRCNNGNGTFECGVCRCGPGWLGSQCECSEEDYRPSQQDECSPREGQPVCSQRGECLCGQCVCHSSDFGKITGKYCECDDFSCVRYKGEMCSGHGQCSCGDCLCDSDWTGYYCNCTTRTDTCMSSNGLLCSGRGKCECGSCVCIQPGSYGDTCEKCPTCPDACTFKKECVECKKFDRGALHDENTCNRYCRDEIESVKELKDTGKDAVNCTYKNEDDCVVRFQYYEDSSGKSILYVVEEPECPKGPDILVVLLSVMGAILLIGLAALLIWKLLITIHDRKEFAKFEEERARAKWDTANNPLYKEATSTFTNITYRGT

SNTETAFTSVLPAGEKPEEGEPVLHVEAEPGFTARDKEKEVTTRPRETV [synstatin82-130]
IC50 ([1]; 2 h): ~100 nM

B1: S1ED: recombinant mouse Sdc1 ectodomain (amino acids 18-251), expressed in bacteria as GST fusion or 6×His-tagged protein (protein)
chain: QPALPQIVAVNVPPEDQDGSGDDSDNFSGSGTGALPDTLSRQTPSTWKDVWLLTATPTAPEPTSSNTETAFTSVLPAGEKPEEGEPVLHVEAEPGFTARDKEKEVTTRPRETVQLPITQRASTVRVTTAQAAVTSHPHGGMQPGLHETSAPTAPGQPDHQPPRVEGGGTSVIKEVVEDGTANQLPAGEGSGEQDFTFETSGENTAVAAVEPGLRNQPPVDEGATGASQSLLDRK
modifications: left off: a dimerising Fc or GST
notes: recombinant mouse Sdc1 ectodomain (amino acids 18-251), expressed in bacteria as GST fusion or 6×His-tagged protein
IC50 (B82L fibroblasts): 3 to 10 µM | co-immunoprecipitation of αvβ3 integrin with human or mouse syndecan-1 [2]: competed | complete block of cell attachment on VN ([1]; highest concentration tested, 50 μM): not seen | IC50 [3]: 3 to 10 µM

Source: patent US10864251B2, “Peptides of syndecan-1 for inhibiting angiogenesis” (Wisconsin Alumni Research Foundation, priority 2006, dated 2020)
